Among the data in PMC3580838 are % CcmE bound with heme and % holoCcmE bound with heme values, retold here.

One assay concerns the target GST:CcmC(H60A/H184A) (UniProt P0ABM1). Briefly: pull-down.
In another assay the target is GST:CcmC(W^5A/D126A) (UniProt P0ABM1). As to the kind of experiment: pull-down.

In the assay with GST:CcmC(H60A/H184A), “CcmE (from UniProt P69490 30-159) (natural protein)” came in with a % CcmE bound with heme of under 4% and a % holoCcmE bound with heme of under 3%. In the assay with GST:CcmC(W^5A/D126A), this substance yielded a % CcmE bound with heme of under 4% and a % holoCcmE bound with heme of under 3%.
